Laboratory results taken from patent publication US20250388666A1 (BRIGHAM AND WOMEN S HOSPITAL, published 2025).
Like-named read-outs stand apart in the source and are kept apart here.

T1: CEACAM3 (Sino Biological) (human, UniProt P40198 35-155, limits assumed)
T1 construct: also called hCEACAM3
T1 sequence (looked up): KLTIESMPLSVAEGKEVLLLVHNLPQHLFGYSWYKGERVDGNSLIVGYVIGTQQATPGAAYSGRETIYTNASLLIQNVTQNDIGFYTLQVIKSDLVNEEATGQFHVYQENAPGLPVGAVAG

T2: CEACAM1 (Sino Biological) (human, UniProt P13688 35-428, limits assumed)
T2 construct: may be the same as CEACAM1-HIS; also called hCEACAM1; biotinylated soluble CEACAM1
T2 sequence: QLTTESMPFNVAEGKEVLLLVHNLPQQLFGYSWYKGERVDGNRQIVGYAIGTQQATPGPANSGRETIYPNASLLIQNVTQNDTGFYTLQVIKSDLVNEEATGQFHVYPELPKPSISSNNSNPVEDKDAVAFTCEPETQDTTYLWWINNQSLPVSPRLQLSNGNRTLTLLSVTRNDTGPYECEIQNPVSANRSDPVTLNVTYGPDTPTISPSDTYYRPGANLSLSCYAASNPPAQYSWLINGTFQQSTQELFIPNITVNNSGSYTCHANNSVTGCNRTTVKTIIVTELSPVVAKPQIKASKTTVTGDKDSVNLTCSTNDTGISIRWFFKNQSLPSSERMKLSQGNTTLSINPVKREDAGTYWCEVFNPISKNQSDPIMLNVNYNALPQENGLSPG

T3: CEACAM6 (Sino Biological) (human, UniProt P40199 35-320)
T3 construct: also called hCEACAM6
T3 sequence (looked up): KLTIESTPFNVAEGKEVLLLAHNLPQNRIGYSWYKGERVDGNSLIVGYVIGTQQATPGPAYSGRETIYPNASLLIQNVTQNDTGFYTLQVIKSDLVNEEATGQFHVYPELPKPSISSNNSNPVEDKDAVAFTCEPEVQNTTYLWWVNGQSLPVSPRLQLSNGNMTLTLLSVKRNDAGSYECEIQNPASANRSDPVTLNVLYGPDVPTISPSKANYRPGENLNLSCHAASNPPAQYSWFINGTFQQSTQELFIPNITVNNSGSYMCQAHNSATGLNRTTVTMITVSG


What was measured:
[1] = target: T1, CEACAM3 (Sino Biological); experiment: binding ELISA on plate-coated CEACAM (0.5 µg/mL); antibody at 1.67, 0.062 and 0.0069 µg/mL; signal as % of parent IgG on CEACAM1 at 1.67 µg/mL on the same plate
[2] = target: T2, CEACAM1 (Sino Biological); experiment: SPR multi-cycle, IgG on Protein A
Protocol: Multi-cycle kinetics analysis was performed on the twelve lead antibodies using a Biacore T200 instrument running Biacore T200 Evaluation Software V3.0.1 (Uppsala, Sweden) to establish an accurate affinity for CEACAM1. The purified antibodies were diluted to a concentration of […] in HBS-P+. At the start of each cycle, each antibody was captured on the Protein A surface to give an RL of ˜100 RU. Following capture, the surface was allowed to stabilize. Kinetic data was obtained using a flow rate of […] to minimize any potential mass transfer effects. For the kinetics analysis, CEACAM1 was used. Multiple repeats of the blank ([…]) and a repeat of a single concentration of the analyte were programmed into the kinetic run in order to check the stability of both the surface and analyte over the kinetic cycles. For kinetic analysis, a two-fold dilution range was selected from 200 to 3.125 nM CEACAM1. The association phase of CEACAM1 was monitored for 275 seconds and the dissociation phase was measured for 250 seconds. Regeneration of the Protein A surface was conducted using two injections of 10 mM glycine-HCL pH 1.5 at the end of each cycle.
The signal from the reference channel Fc1 was subtracted from that of Fc2, Fc3 and Fc4 to correct for differences in non-specific binding to a reference surface, and a global Rmax parameter was used in the 1-to-1 binding model. The relative KD was calculated by dividing the KD of the RSB02 Parent by that of the humanized and affinity matured variants on the same chip.

[3] = target: T2, CEACAM1 (Sino Biological); experiment: SPR single-cycle
How it was run: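 Humanized affinity-matured IgGs from crude supernatants captured on Protein A to ~100 RU, with CEACAM1 analyte injected at 25–100 nM (three-point, two-fold) in HBS-P+ without regeneration. 200 s association per injection, 300 s single dissociation; reference-channel and blank subtracted.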

[4] = target: T3, CEACAM6 (Sino Biological); experiment: binding ELISA on plate-coated CEACAM (0.5 µg/mL); antibody at 1.67, 0.062 and 0.0069 µg/mL; signal as % of parent IgG on CEACAM1 at 1.67 µg/mL on the same plate
[5] = target: T1, CEACAM3 (Sino Biological); experiment: as above; remark: listed apart in the source

binding result [1]	Kd [2] [nM]	koff [2] [s⁻¹]	kon [2] [M⁻¹ s⁻¹]	relative KD to Parent [2] [ratio]	Kd [3] [nM]	fold better than Parent (KD) [3] [fold]	binding result [4]	binding result [5]	Binder
no binding (tested: 1.67 µg/mL)	38.9	0.00146	37500	3.16	52	3.04	–	–	He4/L16 (antibody, IgG4, V domains shown, IgG4 S241P, kappa; also called He4 / 16) VH: EVQLLESGGGLVQPGGSLRLSCAASGFSFSDYYLYWVRQAPGKGLEWVATISVGGGQTSYADSVKGRFTISRDNSKNTLYLQMNSLRAEDTAMYYCTRALYYGPAWFAYWGQGTLVTVSS VL: DIVMTQSPDSLAVSLGERATINCKSSQSLLNSANQKNYLAWYQQKPGQPPKLLIYFASTRESGVPDRFSGSGSGTDFTLTISSLQAEDVAVYYCQSHYPYPFTFGGGTKVEIK
–	67.3	0.00724	108000	1.83	69	2.3	no binding (tested: 1.67 µg/mL)	no binding (tested: 1.67 µg/mL)	He14/L1 (antibody, IgG4, V domains shown, IgG4 S241P, kappa; also called He14 / 1) VH: EVQLLESGGGLVQPGGSLRLSCAASGFSFSDYYLYWVRQAPGKGLEWVATISVGGGQTSYADSVKGRFTISRDNSKNTLYLQMNSLRAEDTAMYYCTRGLYYGPSWVAYWGQGTLVTVSS VL: DIVMTQSPDSLAVSLGERATINCKSSQSLLNSANQKNYLAWYQQKPGQPPKLLIYFASTRESGVPDRFSGSGSGTDFTLTISSLQAEDVAVYYCQSHYPFYYTFGGGTKVEIK
